Test results as given in PMC2915760.

Substrate: O=[N+]([O-])c1ccc(OP(=O)(O)O)cc1
Experiment: purified protein

B1: Lyp (lymphoid-specific protein tyrosine phosphatase, PTPN22), wild-type (Homo sapiens) (protein)
chain: MDQREILQKFLDEAQSKKITKEEFANEFLKLKRQSTKYKADKTYPTTVAEKPKNIKKNRYKDILPYDYSRVELSLITSDEDSSYINANFIKGVYGPKAYIATQGPLSTTLLDFWRMIWEYSVLIIVMACMEYEMGKKKCERYWAEPGEMQLEFGPFSVSCEAEKRKSDYIIRTLKVKFNSETRTIYQFHYKNWPDHDVPSSIDPILELIWDVRCYQEDDSVPICIHCSAGCGRTGVICAIDYTWMLLKDGIIPENFSVFSLIREMRTQRPSLVQTQEQYELVYNAVLELFKRQM
Km: 4.86 ± 0.39 mM
